The values that follow come from publication PMC9381590.

This experiment has as its target endogenous PKM2 (human (endogenous in CRC cells)) (UniProt P14618). Description: not stated; monomeric, dimeric and tetrameric forms of endogenous PKM2 in HCT116 cells with or without DDX39B overexpression (Supplementary Fig. 7c).

Chain of endogenous PKM2, P14618 1-531 (natural protein; other documents disagree on this pair) (P14618 whole entry): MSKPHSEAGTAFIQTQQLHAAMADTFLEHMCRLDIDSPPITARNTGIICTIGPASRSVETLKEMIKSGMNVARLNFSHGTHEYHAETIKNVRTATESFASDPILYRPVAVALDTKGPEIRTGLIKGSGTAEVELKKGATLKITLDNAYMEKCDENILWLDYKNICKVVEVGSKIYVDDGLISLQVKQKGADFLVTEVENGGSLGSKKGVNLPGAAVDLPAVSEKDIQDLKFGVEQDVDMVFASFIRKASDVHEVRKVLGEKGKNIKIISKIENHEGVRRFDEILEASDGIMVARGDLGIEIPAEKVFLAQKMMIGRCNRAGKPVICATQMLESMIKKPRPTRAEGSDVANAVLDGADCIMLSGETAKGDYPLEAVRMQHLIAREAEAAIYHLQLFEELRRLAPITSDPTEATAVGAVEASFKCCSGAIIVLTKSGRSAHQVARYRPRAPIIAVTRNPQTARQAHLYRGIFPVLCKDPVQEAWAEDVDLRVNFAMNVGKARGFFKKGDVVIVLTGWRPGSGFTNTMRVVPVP

One may read the stoichiometry N as a count of units in the complex or per binding partner. “endogenous PKM2, P14618 1-531 (natural protein; other documents disagree on this pair)” registered a stoichiometry N of 2.
